Experimental data from patent WO2020219978A1 (dated 2020).

Legend:
[1] = target: T1, human BCMA (hu-BCMA), as used in SPR (human, UniProt Q02223 1-54); assay: not stated (description)
T1 construct: The construct used in SPR is not described; also called B cell maturation antigen; TNFRSF17
T1 sequence: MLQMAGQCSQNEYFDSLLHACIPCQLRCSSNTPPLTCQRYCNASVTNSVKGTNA

[2] = target: human CD3 epsilon (CD3ɛ), form of the assay not stated (human, UniProt P07766 23-126, limits assumed); assay: not stated (description)
Sequence of human CD3 epsilon (CD3ɛ), form of the assay not stated (P07766 23-126 limits assumed): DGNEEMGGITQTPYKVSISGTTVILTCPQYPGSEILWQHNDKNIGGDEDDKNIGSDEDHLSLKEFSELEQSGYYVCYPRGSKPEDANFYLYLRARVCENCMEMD

[3] = target: T2, human BCMA on cells (NCI-H929, L363, JJN-3, RPMI-8226, U266 myeloma cell lines; HEK293T-huBCMA) (human, UniProt Q02223 1-184); assay: flow cytometry on NCI-H929 MM cells, 3 lots
T2 construct: also called BCMA on myeloma cell lines
T2 sequence: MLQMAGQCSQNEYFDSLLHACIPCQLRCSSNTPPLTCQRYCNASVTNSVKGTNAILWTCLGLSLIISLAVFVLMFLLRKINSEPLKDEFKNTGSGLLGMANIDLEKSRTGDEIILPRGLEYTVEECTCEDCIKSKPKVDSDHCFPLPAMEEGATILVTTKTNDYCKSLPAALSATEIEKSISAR

CD3 on Jurkat cells [4] = target: T3, CD3 on Jurkat cells (human, UniProt P07766 23-207); assay: flow cytometry on Jurkat cells, second study
T3 construct: also called CD3 on T cell lines
T3 sequence (P07766 23-207 limits assumed): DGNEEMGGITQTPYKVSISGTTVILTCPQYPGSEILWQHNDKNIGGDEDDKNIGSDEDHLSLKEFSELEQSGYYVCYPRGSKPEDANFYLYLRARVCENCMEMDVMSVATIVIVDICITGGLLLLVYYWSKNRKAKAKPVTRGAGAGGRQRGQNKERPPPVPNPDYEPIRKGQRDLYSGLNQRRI

[5] = target: T4, human cluster of differentiation 3 epsilon/delta heterodimer (CD3ed) (human, UniProt P04234 22-105); assay: SPR (n = 3 by paragraph 97)
T4 construct: also called human CD3ed heterodimer
T4 sequence (chain, as listed by the source mutant, chain 1 of 2): as the sequence (P07766 23-126 limits assumed) above
T4 sequence (P04234 22-105, stated change not applied, chain 2 of 2): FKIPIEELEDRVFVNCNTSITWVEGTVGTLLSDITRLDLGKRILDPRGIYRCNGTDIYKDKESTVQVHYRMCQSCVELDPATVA

[6] = target: T1, human BCMA (hu-BCMA), as used in SPR; assay: SPR
CD3 on Jurkat cells [7] = target: T3, CD3 on Jurkat cells; assay: flow cytometry on Jurkat cells
[8] = target: T1, human BCMA (hu-BCMA), as used in SPR; assay: SPR, mean (n = 3 by paragraph 97)
mouse BCMA = target: T5, mouse BCMA (mouse, UniProt O88472 1-49, limits assumed); assay: SPR
T5 construct: also called rodent BCMA
T5 chain (looked up): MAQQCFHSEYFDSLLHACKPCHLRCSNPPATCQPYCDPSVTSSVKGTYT

BCMA/Fc = target: T6, BCMA/Fc (human, UniProt Q02223 1-54); assay: flow cytometry blocking experiment on U266 cells; soluble BCMA/Fc against BCMA on the cells
T6 construct: not shown: Fc part not described
T6 sequence: T1 sequence

B1: CC-93269, bispecific trivalent anti-BCMA/anti-CD3 T cell engaging antibody (TCE) (bispecific antibody, human IgG1, kappa, L234A L235A)
heavy 1: not shown
heavy 2: EVQLLESGGGLVQPGGSLRLSCAASGFTFSDNAMGWVRQAPGKGLEWVSAISGPGSSTYYADSVKGRFTISRDNSKNTLYLQMNSLRAEDTAVYYCAKVLGWFDYWGQGTLVTVSSASTKGPSVFPLAPSSKSTSGGTAALGCLVEDYFPEPVTVSWNSGALTSGVHTFPAVLQSSGLYSLSSVVTVPSSSLGTQTYICNVNHKPSNTKVDEKVEPKSCDKTHTCPPCPAPEAAGGPSVFLFPPKPKDTLMISRTPEVTCVVVDVSHEDPEVKFNWYVDGVEVHNAKTKPREEQYNSTYRVVSVLTVLHQDWLNGKEYKCKVSNKALGAPIEKTISKAKGQPREPQVCTLPPSRDELTKNQVSLSCAVKGFYPSDIAVEWESNGQPENNYKTTPPVLDSDGSFFLVSKLTVDKSRWQQGNVFSCSVMHEALHNHYTQKSLSLSPGK
light 1: EVQLLESGGGLVQPGGSLRLSCAASGFTFSTYAMNWVRQAPGKGLEWVSRIRSKYNNYATYYADSVKGRFTISRDDSKNTLYLQMNSLRAEDTAVYYCVRHGNFGNSYVSWFAYWGQGTLVTVSSASVAAPSVFIFPPSDEQLKSGTASVVCLLNNFYPREAKVQWKVDNALQSGNSQESVTEQDSKDSTYSLSSTLTLSKADYEKHKVYACEVTHQGLSSPVTKSFNRGEC
light 2: EIVLTQSPGTLSLSPGERATLSCRASQSVSDEYLSWYQQKPGQAPRLLIHSASTRATGIPDRFSGSGSGTDFTLAISRLEPEDFAVYYCQQYGYPPDFTFGQGTKVEIKRTVAAPSVFIFPPSDRKLKSGTASVVCLLNNFYPREAKVQWKVDNALQSGNSQESVTEQDSKDSTYSLSSTLTLSKADYEKHKVYACEVTHQGLSSPVTKSFNRGEC
B1 showed a Kd [1] of about 0.3 nM, a Kd [2] of 24 to 28 nM and an EC50 [3] of 1.7 to 2.8 nM. The EC50 (CD3 on Jurkat cells [4]) was 121 nM, the Kd [5] was 25 nM and the “fold higher affinity than to rodent BCMA” value [6] was about 10 fold. It also gave an EC50 (CD3 on Jurkat cells [7]) of 16.8 to 37.4 nM.

B2: BCMA binder of CC-93269 (anti-BCMA IgG and Fab fragment of clone 83A10-42) (antibody, V domains shown)
VH: EVQLLESGGGLVQPGGSLRLSCAASGFTFSDNAMGWVRQAPGKGLEWVSAISGPGSSTYYADSVKGRFTISRDNSKNTLYLQMNSLRAEDTAVYYCAKVLGWFDYWGQGTLVTVSS
VL: EIVLTQSPGTLSLSPGERATLSCRASQSVSDEYLSWYQQKPGQAPRLLIHSASTRATGIPDRFSGSGSGTDFTLAISRLEPEDFAVYYCQQYGYPPDFTFGQGTKVEIK
With B2 the Kd [8] was 0.431 nM, the binding result (mouse BCMA) was “binds” and the Kd [6] was 0.203 to 0.45 nM.

B3: phycoerythrin (PE)-conjugated BCMA binder (Clone 83A10-42) of CC-93269 (antibody, V domains shown)
VH: B2 VH
VL: B2 VL
modifications: phycoerythrin (PE)-conjugated; site not stated
notes: also called PE-conjugated 83A10-42
B3: binds (BCMA/Fc).
